Tested on: K4 kissing-loop RNA reporter
Assay: apparent KD of K4 kissing-loop reporter; higher = weaker reporter binding
Settings: Eterna round: R107
Procedure: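 RNA-MaP round R107: designed RNA switches with theophylline, tryptophan, arginine or FMN aptamers are transcribed on-chip within common flanks. They are titrated with a labelled K4 kissing-loop RNA reporter in RNA-MaP buffer (100 mM Tris pH 7.5, 80 mM KCl, 4 mM MgCl2), without ligand or with the indicated ligand. Median apparent KD per design.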

[1] = input ligand: theophylline 20 uM
[2] = input ligand: tryptophan 2.4 mM
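Also: bound reporter read as fluorescence of individual clusters on recovered sequencing chips by microscopy, with normalized cluster intensities fitted with a binding model.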

UAUACACAGGGAGGAUAUGCCCACACAACAACCGAGUGAUGUUCGGACAAUACACAUAAUACACGGGCAGAAGGCCCACAUCACA [SS FNM B Tesla 1]
apparent KD of K4 kissing-loop reporter (input ligand: FMN 200 uM): 143 nM
apparent KD of K4 kissing-loop reporter (input ligand: arginine 13.2 mM): 195 nM
apparent KD of K4 kissing-loop reporter (input ligand: none): 245 nM
apparent KD of K4 kissing-loop reporter [1]: 192 nM
apparent KD of K4 kissing-loop reporter [2]: 139 nM

AGAAUAAUAAAUUUGGAGUGAUGUUCCGGACGAGGACCGGUACGGCCGCCACUCGAAAGCAGUCUGCGAAAGCAGACUGCAAGGA [Tesla SS Tryp A 1]
apparent KD of K4 kissing-loop reporter (input ligand: FMN 200 uM): 817 nM
apparent KD of K4 kissing-loop reporter (input ligand: arginine 13.2 mM): 449 nM
apparent KD of K4 kissing-loop reporter (input ligand: none): 580 nM
apparent KD of K4 kissing-loop reporter [1]: 349 nM
apparent KD of K4 kissing-loop reporter [2]: 645 nM

AGUUCUUGCCGAAGGAGCGAGGCAGAGUGAUGUUCUGCAAGAGGUCGAAAGACCUCACUGCCUCAGGUAGGUCGCGGCAUGAACA [Omei KL Arginine B Exc A v4]
apparent KD of K4 kissing-loop reporter (input ligand: FMN 200 uM): 801 nM
apparent KD of K4 kissing-loop reporter (input ligand: arginine 13.2 mM): 509 nM
apparent KD of K4 kissing-loop reporter (input ligand: none): 930 nM
apparent KD of K4 kissing-loop reporter [1]: 602 nM
apparent KD of K4 kissing-loop reporter [2]: 1050 nM

GGACUACUAUGUCCCAUACAAACAAGAGAUACCAGCCAUCAUAGAGGCCCUUGGCAGCUCAUAUAAUCCAGUGAUGUUGGAUUUC [Beveus]
apparent KD of K4 kissing-loop reporter (input ligand: FMN 200 uM): 150 nM
apparent KD of K4 kissing-loop reporter (input ligand: arginine 13.2 mM): 193 nM
apparent KD of K4 kissing-loop reporter (input ligand: none): 163 nM
apparent KD of K4 kissing-loop reporter [1]: 136 nM
apparent KD of K4 kissing-loop reporter [2]: 132 nM

AGAAGAGUGAUGUUCUUCUAUAUCUCAGAAGGAGCGACAUUAAUGUCAGGUAGGUCGCUGAGAUGAAAUCUCACACAGAUCUUGG [Arg A SS t8a]
apparent KD of K4 kissing-loop reporter (input ligand: FMN 200 uM): 145 nM
apparent KD of K4 kissing-loop reporter (input ligand: arginine 13.2 mM): 154 nM
apparent KD of K4 kissing-loop reporter (input ligand: none): 149 nM
apparent KD of K4 kissing-loop reporter [1]: 178 nM
apparent KD of K4 kissing-loop reporter [2]: 125 nM

CCAUUCAGUUACGAUACCAGUCUAAUAUAUUUGAUCAAAACCCUCGCCGAGUGAUGUUCGGACCCUUGGCAGCGUCUGGGACAGG [xxcetmullin]
apparent KD of K4 kissing-loop reporter (input ligand: FMN 200 uM): 481 nM
apparent KD of K4 kissing-loop reporter (input ligand: arginine 13.2 mM): 399 nM
apparent KD of K4 kissing-loop reporter (input ligand: none): 421 nM
apparent KD of K4 kissing-loop reporter [1]: 379 nM
apparent KD of K4 kissing-loop reporter [2]: 344 nM

CGAUUUGCUUCAGCCUUAGUGAUGUUAAGGCGAGGACCGGUACGGCCGCCACUCGUAGGUUAUGUGCACGGCGGCGCUAAGGGCC [theeternabot_exclusion_KL_Trp_A_36]
apparent KD of K4 kissing-loop reporter (input ligand: FMN 200 uM): 109 nM
apparent KD of K4 kissing-loop reporter (input ligand: arginine 13.2 mM): 107 nM
apparent KD of K4 kissing-loop reporter (input ligand: none): 111 nM
apparent KD of K4 kissing-loop reporter [1]: 120 nM
apparent KD of K4 kissing-loop reporter [2]: 108 nM

UUUUUAAUCGCAGAUACCAGUCCAGAAUGAAUACUAUAGUGAUGUUAUAAUAAAGGGAAGGACCCUUGGCAGCUGUACUAUAUUU [AstrosSsTheB#6]
apparent KD of K4 kissing-loop reporter (input ligand: FMN 200 uM): 412 nM
apparent KD of K4 kissing-loop reporter (input ligand: arginine 13.2 mM): 308 nM
apparent KD of K4 kissing-loop reporter (input ligand: none): 398 nM
apparent KD of K4 kissing-loop reporter [1]: 300 nM
apparent KD of K4 kissing-loop reporter [2]: 299 nM

UCCUACGAGGUAACGUGGAUAUCUCGUUGCAAGGAUAUCUGGAAACAGAGAAGGUGCAACAUUAUCAGCAGUGAUGUUGCUGACC
apparent KD of K4 kissing-loop reporter (input ligand: FMN 200 uM): 215 nM
apparent KD of K4 kissing-loop reporter (input ligand: arginine 13.2 mM): 247 nM
apparent KD of K4 kissing-loop reporter (input ligand: none): 276 nM
apparent KD of K4 kissing-loop reporter [1]: 389 nM
apparent KD of K4 kissing-loop reporter [2]: 329 nM

UGAUACCAGACUGAUACCAGCCACAGAGUCAAGACUCUGAUAAAGGUAACCAGUGAUGUUGGCCCUUGGCAGCAGUCUGGUAUCU [TheoBX 16 #SwitchBubble #StaticStem]
apparent KD of K4 kissing-loop reporter (input ligand: FMN 200 uM): 193 nM
apparent KD of K4 kissing-loop reporter (input ligand: arginine 13.2 mM): 164 nM
apparent KD of K4 kissing-loop reporter (input ligand: none): 166 nM
apparent KD of K4 kissing-loop reporter [1]: 149 nM
apparent KD of K4 kissing-loop reporter [2]: 156 nM

UGAUUGGCGAAAGUAGUGAUGUUACGAAUAUAGGAUAUUAGAGGAAUAAGAAGGAUAAAUGAGAAAUAGGUAAAUUGUUGGUUGG [FMN same state]
apparent KD of K4 kissing-loop reporter (input ligand: FMN 200 uM): 101 nM
apparent KD of K4 kissing-loop reporter (input ligand: arginine 13.2 mM): 51.5 nM
apparent KD of K4 kissing-loop reporter (input ligand: none): 95.5 nM
apparent KD of K4 kissing-loop reporter [1]: 116 nM
apparent KD of K4 kissing-loop reporter [2]: 94.5 nM

AAACGUUGGUGCGAUACCAGCUGCUCGGAAACGAGCUUGCUGGAGUGAUGUUCCAGGAAAAGCCCUUGGCAGCGCACCGACGAAA [MAT - Same State Theophlline B - Mod of Eli - D27]
apparent KD of K4 kissing-loop reporter (input ligand: FMN 200 uM): 856 nM
apparent KD of K4 kissing-loop reporter (input ligand: arginine 13.2 mM): 561 nM
apparent KD of K4 kissing-loop reporter (input ligand: none): 2040 nM
apparent KD of K4 kissing-loop reporter [1]: 738 nM
apparent KD of K4 kissing-loop reporter [2]: 715 nM

UCACAAGUUAACUAGUGAUGUUAGUUAGUACGAGGACCGGUACGGCCGCCACUCGAAAAGUGGUUUUACGGACUUUUGGGCAGGC [theeternabot_sameState_KL_Trp_A_17]
apparent KD of K4 kissing-loop reporter (input ligand: FMN 200 uM): 337 nM
apparent KD of K4 kissing-loop reporter (input ligand: arginine 13.2 mM): 250 nM
apparent KD of K4 kissing-loop reporter (input ligand: none): 268 nM
apparent KD of K4 kissing-loop reporter [1]: 223 nM
apparent KD of K4 kissing-loop reporter [2]: 260 nM

UGGGAUGUUAAAGGAUAUAGAAAGUGAUAUUAGAAAGUGAGUGAUGUUGAUGUAAGUGAUGAUAUGUUAGAAGGUUAACAAAACG [abcd]
apparent KD of K4 kissing-loop reporter (input ligand: FMN 200 uM): 431 nM
apparent KD of K4 kissing-loop reporter (input ligand: arginine 13.2 mM): 363 nM
apparent KD of K4 kissing-loop reporter (input ligand: none): 499 nM
apparent KD of K4 kissing-loop reporter [1]: 472 nM
apparent KD of K4 kissing-loop reporter [2]: 379 nM

AGACUACUGACAGGAUAUAACAUAUUAGCUCGUAUACCAAAGGUAUACGAGCACCUUCUAGUGAUGUUAGAAGGGUCGGUAGUCA [Omei KL FMN B Exc B v1]
apparent KD of K4 kissing-loop reporter (input ligand: FMN 200 uM): 297 nM
apparent KD of K4 kissing-loop reporter (input ligand: arginine 13.2 mM): 99.8 nM
apparent KD of K4 kissing-loop reporter (input ligand: none): 106 nM
apparent KD of K4 kissing-loop reporter [1]: 96.2 nM
apparent KD of K4 kissing-loop reporter [2]: 118 nM

GGAUAGGACAGAGGAUAUGGCAGUCUACAAAGUAGGCUGAAAUAAAUCCUUGAAUGGAGUGAUGUUCCAGAAGGCUGUCCUAUCG [FmnBX 23 #SwitchBubble #StaticStem #Palindromic]
apparent KD of K4 kissing-loop reporter (input ligand: FMN 200 uM): 911 nM
apparent KD of K4 kissing-loop reporter (input ligand: arginine 13.2 mM): 156 nM
apparent KD of K4 kissing-loop reporter (input ligand: none): 158 nM
apparent KD of K4 kissing-loop reporter [1]: 169 nM
apparent KD of K4 kissing-loop reporter [2]: 172 nM

GCCUGGGCCCGAAGGAGCGCCGUGACAGGUUACUGCAUUGAGCAGUGAUGUUGCUCAAUCUGGCAGGUAGGUCGCGGGCCCAGGC
apparent KD of K4 kissing-loop reporter (input ligand: FMN 200 uM): 120 nM
apparent KD of K4 kissing-loop reporter (input ligand: arginine 13.2 mM): 100 nM
apparent KD of K4 kissing-loop reporter (input ligand: none): 102 nM
apparent KD of K4 kissing-loop reporter [1]: 108 nM
apparent KD of K4 kissing-loop reporter [2]: 93.1 nM

AUGGGCGAGGUAACGUGGAUAUCUCGUCGCAAGGAUAUCUGGAAACAGAGAAGGUGCUACAUUACCGGCAGUGAUGUUGCUGACC
apparent KD of K4 kissing-loop reporter (input ligand: FMN 200 uM): 959 nM
apparent KD of K4 kissing-loop reporter (input ligand: arginine 13.2 mM): 231 nM
apparent KD of K4 kissing-loop reporter (input ligand: none): 559 nM
apparent KD of K4 kissing-loop reporter [1]: 263 nM
apparent KD of K4 kissing-loop reporter [2]: 131 nM

AGCGAUGUUUUCUCUAAGAGUGAUGUUUUUCGAGGACCGGUACGGCCGCCACUCGAAUAAAGAGUGUGGUAGUGAGCUGUUGACU [qqmullin]
apparent KD of K4 kissing-loop reporter (input ligand: FMN 200 uM): 622 nM
apparent KD of K4 kissing-loop reporter (input ligand: arginine 13.2 mM): 256 nM
apparent KD of K4 kissing-loop reporter (input ligand: none): 451 nM
apparent KD of K4 kissing-loop reporter [1]: 442 nM
apparent KD of K4 kissing-loop reporter [2]: 278 nM

UGCUGGUCAUAGCGUAGUGUGAGCCGCUCACGAGGACCGGUACGGCCGCCACUCGUUACAAAGCAGUGAUGUUGCAAUAGGCUCU [theeternabot_sameState_KL_Trp_A_24]
apparent KD of K4 kissing-loop reporter (input ligand: FMN 200 uM): 332 nM
apparent KD of K4 kissing-loop reporter (input ligand: arginine 13.2 mM): 407 nM
apparent KD of K4 kissing-loop reporter (input ligand: none): 339 nM
apparent KD of K4 kissing-loop reporter [1]: 417 nM
apparent KD of K4 kissing-loop reporter [2]: 156 nM

UAGGAGUGAUGUUCCAUGUCUUGAGCCGAAGGAGCGCCUUUCUAGGCAGGUAGGUCGCGGCAGAAGGUACCAGUGAUGUUGGAAA [Same State Arginine A GF8]
apparent KD of K4 kissing-loop reporter (input ligand: FMN 200 uM): 249 nM
apparent KD of K4 kissing-loop reporter (input ligand: arginine 13.2 mM): 385 nM
apparent KD of K4 kissing-loop reporter (input ligand: none): 372 nM
apparent KD of K4 kissing-loop reporter [1]: 283 nM
apparent KD of K4 kissing-loop reporter [2]: 279 nM

AAGGUCACCACUACAGUGAUGUUGUGGGAGCAGGAUAUGCAGAAAUGCAGAAGGGCUCGCUCCCGGUGACCGAAUGAAACAUUCA [Omei KL FMN A SS A v5]
apparent KD of K4 kissing-loop reporter (input ligand: FMN 200 uM): 1380 nM
apparent KD of K4 kissing-loop reporter (input ligand: arginine 13.2 mM): 636 nM
apparent KD of K4 kissing-loop reporter (input ligand: none): 981 nM
apparent KD of K4 kissing-loop reporter [1]: 765 nM
apparent KD of K4 kissing-loop reporter [2]: 846 nM
